From patent publication US20220281976A1 (Alector, published 2022)

T1: mouse CD33 Fc fusion protein (mouse, UniProt Q63994 18-240, limits assumed)
T1 construct: also called mCD33-Fc
T1 sequence: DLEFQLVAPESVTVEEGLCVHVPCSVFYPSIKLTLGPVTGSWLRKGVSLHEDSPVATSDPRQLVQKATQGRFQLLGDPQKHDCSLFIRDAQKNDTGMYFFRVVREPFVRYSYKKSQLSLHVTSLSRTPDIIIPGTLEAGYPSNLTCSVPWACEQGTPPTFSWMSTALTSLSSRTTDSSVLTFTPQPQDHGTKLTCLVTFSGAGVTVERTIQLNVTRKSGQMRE


Key:
[1] = biological target: T1, mouse CD33 Fc fusion protein; assay: ForteBio BLI or MSD-SET, IgG, avid;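 further: Anti-CD33 IgG affinity by BLI, IgG captured on AHQ sensors with antigen in solution and a one-to-one kinetic fit, or by MSD solution equilibrium titration with quadratic fit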
Protocol: (§1) The binding affinity of each anti-CD33 antibody was determined by measuring their KD by ForteBio or MSD-SET. […] Briefly, ForteBio affinity measurements were performed by loading IgGs on-line onto AHQ sensors. Sensors were equilibrated off-line in assay buffer for 30 min and then monitored on-line for 60 seconds for baseline establishment. Sensors with loaded IgGs were exposed to 100 nM antigen for 5 minutes, then transferred to assay buffer for 5 min for off-rate measurement. Kinetics were analyzed using the 1:1 binding model.
(§2) Solution equilibrium titrations (SET) were performed in PBS+0.1% IgG-Free BSA (PBSF) with antigen held constant at 50 pM and incubated with 3-to 5-fold serial dilutions of antibody starting at 10 nM. Antibodies (20 nM in PBS) were coated onto standard bind MSD-ECL plates overnight at 4° C. or at room temperature for 30 min. Plates were then blocked for 30 min with shaking at 700 rpm, followed by three washes with wash buffer (PBSF+0.05% Tween 20). SET samples were applied and incubated on the plates for 150s with shaking at 700 rpm followed by one wash. Antigen captured on a plate was detected with 250 ng/mL sulfotag-labeled streptavidin in PBSF by incubation on the plate for 3 min. The plates were washed three times with wash buffer and then read on the MSD Sector Imager 2400 instrument using 1× Read Buffer T with surfactant. The percent free antigen was plotted as a function of titrated antibody in Prism and fit to a quadratic equation to extract the KD. To improve throughput, liquid handling robots were used throughout MSD-SET experiments, including SET sample preparation.

[2] = biological target: T2, human monomeric His tagged CD33 protein (human, UniProt P20138 18-259); assay: ForteBio BLI or MSD-SET
T2 construct: also called hCD33-His

[3] = biological target: T3, human CD33 Fc fusion protein (human, UniProt P20138 18-259); assay: ForteBio BLI or MSD-SET
T3 construct: also called hCD33-Fc; human CD33/Fc chimera (R&D Systems)

human CD33 [4] = biological target: T4, human CD33 (human, UniProt P20138 18-364); assay: flow cytometry, human primary macrophages;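 further: binding of CD33 antibodies at 10 µg/ml to human primary macrophages, 1 h on ice, detected with PE-labelled secondary antibody by flow cytometry, reported as MFI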
T4 construct: CD33 on human primary dendritic cells, macrophages, monocytes and T cells and on CHO cells expressing recombinant human CD33; also called Siglec-3; hCD33

[5] = biological target: T3, human CD33 Fc fusion protein; assay: RBC adhesion to plate-bound CD33-Fc; antibody 0.5 ug/ml;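 further: Plate-coated CD33-Fc preincubated 1 h with antibody, then red blood cells added for 1 h at room temperature, adherent cells lysed and quantified via peroxidase activity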
Protocol: (§3) Briefly, 5 ug/ml CD33-Fc was coated overnight at RT in 96 well Immunolon plates, then washed with PBS, blocked for one hour with binding buffer (PBS containing %0.25 BSA 1 mM CaCl₂). CD33 antibodies (0.5 ug/ml or 1.0 ug/ml) or Fabs (25 ug/ml) were bound for one hour at RT with gentle rocking. After removal of unbound antibody, red blood cells were added to each well at a concentration of 3.0×10⁶ cells per ml and incubated at RT for one hour. Unbound RBCs were then carefully washed off 3× with PBS, and water was added to each well for hypotonic lysis of bound RBCs. The plate was transferred to −80° C. for 10 minutes, followed by 37° C. for 15 minutes. Bound RBCs were detected by peroxidase activity, followed by 2N sulfuric acid to stop the reaction.

human CD33 [6] = biological target: T4, human CD33; assay: flow cytometry, human primary dendritic cells;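 further: binding of anti-CD33 antibodies (10 ug/ml, 1 h on ice) to human primary dendritic cells, detected with a PE-labelled secondary antibody, reported as flow cytometry MFI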
human CD33 [7] = biological target: T4, human CD33; assay: flow cytometry, human primary T cells;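 further: binding of anti-CD33 antibodies at 10 ug/ml to human primary T cells, 1 h on ice, detected with PE-labelled secondary antibody, read as flow cytometry MFI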
[8] = biological target: T3, human CD33 Fc fusion protein; assay: RBC adhesion to plate-bound CD33-Fc; antibody 1.0 ug/ml;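 further: red blood cells adhering to plate-coated CD33-Fc after 1 h antibody pretreatment, then 1 h at room temperature, bound cells read as peroxidase activity after lysis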
Protocol: as §3

human CD33 [9] = biological target: T4, human CD33; assay: cell-based or functional assay
human CD33 [10] = biological target: T4, human CD33; assay: flow cytometry, human primary monocytes; set-up: reference not given here;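 further: binding of anti-CD33 antibodies at 10 ug/ml to human primary monocytes, 1 h on ice, detected by PE-labelled secondary antibody, flow cytometry readout as mean fluorescence intensity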
[11] = biological target: T2, human monomeric His tagged CD33 protein; assay: ForteBio BLI or MSD-SET, IgG, monomeric antigen;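 further: BLI: antibodies captured on AHQ sensors, 100 nM antigen association 5 min, dissociation 5 min, 1:1 fit. MSD-SET: antigen fixed at 50 pM, antibody titrated, quadratic fit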
Protocol: as §1, §2

[12] = biological target: T3, human CD33 Fc fusion protein; assay: ForteBio BLI or MSD-SET, IgG, avid;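 further: Anti-CD33 IgG affinity by BLI, IgG captured on AHQ sensors with antigen in solution and a one-to-one kinetic fit, or by MSD solution equilibrium titration with quadratic fit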
Protocol: as §1, §2

[13] = biological target: T1, mouse CD33 Fc fusion protein; assay: ForteBio BLI or MSD-SET

T2 sequence (P20138 18-259 limits assumed): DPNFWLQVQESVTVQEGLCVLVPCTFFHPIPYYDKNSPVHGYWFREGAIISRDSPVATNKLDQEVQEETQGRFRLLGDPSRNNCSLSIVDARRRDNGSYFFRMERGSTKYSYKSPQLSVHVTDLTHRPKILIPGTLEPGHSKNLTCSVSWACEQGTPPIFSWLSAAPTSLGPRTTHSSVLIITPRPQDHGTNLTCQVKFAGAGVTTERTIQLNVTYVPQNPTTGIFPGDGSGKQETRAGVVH
T3 sequence (P20138 18-259 limits assumed): as above
T4 sequence (P20138 18-364): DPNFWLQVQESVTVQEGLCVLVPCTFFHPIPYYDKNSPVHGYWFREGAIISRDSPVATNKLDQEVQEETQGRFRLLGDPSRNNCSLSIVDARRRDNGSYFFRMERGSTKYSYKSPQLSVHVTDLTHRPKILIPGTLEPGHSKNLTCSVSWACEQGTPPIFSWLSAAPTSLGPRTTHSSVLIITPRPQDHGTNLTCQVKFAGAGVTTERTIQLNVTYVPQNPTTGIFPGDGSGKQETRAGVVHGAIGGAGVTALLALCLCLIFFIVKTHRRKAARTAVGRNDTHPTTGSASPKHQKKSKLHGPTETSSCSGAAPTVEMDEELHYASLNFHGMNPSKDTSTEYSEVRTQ

Binder | Kd [1] | binding result [2] | binding result [3] | Macrophage MFI (human CD33 [4]) | Percent RBC Binding to CD33 [5] | DC MFI (human CD33 [6]) | T cell MFI (human CD33 [7]) | Percent RBC Binding to CD33 [8] | Percent CD33 Surface Expression, DC % CD33 (human CD33 [9]) | Percent CD33 Surface Expression, Monocyte % CD33 (human CD33 [9]) | Monocyte MFI (human CD33 [10]) | Kd [11] | Percent CD33 Surface Expression, Macrophage % CD33 (human CD33 [9]) | Kd [12] | binding result [13]
C-50 (antibody, V domains shown, human IgG1) VH: not shown VL: DIQMTQSPSSVSASVGDRVTITCRASQGISSWLAWYQQKPGKAPKLLIYAASSLQSGVPSRFSGSGSGTDFTLTISSLQPEDFATYYCQQAFDFPITFGGGTKVEIK | 0.445 nM | no binding (tested: 100 nM) | no binding (tested: 100 nM) | 496 | 118% | 307 | 112 | 95.3% | 87% | 85.3% | 54 |  |  |  | 
C-64 (antibody, V domains shown, human IgG1) VH: QVQLVQSGAEVKKPGSSVKVSCKASGGTFSSLAISWVRQAPGQGLEWMGGIIPIFGTANYAQKFQGRVTITADESTSTAYMELSSLRSEDTAVYYCARGTFYSDELFDYWGQGTLVTVSS VL: DIQMTQSPSSVSASVGDRVTITCRASQGISSWLAWYQQKPGKAPKLLIYAASSLQSGVPSRFSGSGSGTDFTLTISSLQPEDFATYYCQQENSYPLTFGGGTKVEIK | 25.8 nM |  |  | 1040 | 93.5% | 1300 | 188 | 90.4% | 31% | 29.5% | 188 | 7.1 nM | 40.5% |  | 
C-33 (antibody, V domains shown, human IgG1) VH: EVQLVESGGGLVQPGGSLRLSCAASGFTFSSYWMSWVRQAPGKGLEWVANIKSDGSEKYYVDSVKGRFTISRDNAKNSLYLQMNSLRAEDTAVYYCAREGRPRLGYAAFDIWGQGTMVTVSS VL: DIQMTQSPSSLSASVGDRVTITCRASQSISSYLNWYQQKPGKAPKLLIYAASSLQSGVPSRFSGSGSGTDFTLTISSLQPEDFATYYCQQQYDLPITFGGGTKVEIK |  |  |  | 753 | 9.36% | 1590 | 228 | 6.32% | 18.4% | 51.4% | 133 | 3.91 nM | 43.1% | 0.954 nM | no binding (tested: 100 nM)
C-34 (antibody, V domains shown, human IgG1) VH: EVQLVESGGGLVQPGGSLRLSCAASGFTFSSYWMSWVRQAPGKGLEWVANINQDGSEKYYVDSVKGRFTISRDNAKNSLYLQMNSLRAEDTAVYYCARDHGATGPDFDLWGRGTLVTVSS VL: DIQMTQSPSSLSASVGDRVTITCRASQSISSYLNWYQQKPGKAPKLLIYGASSLQSGVPSRFSGSGSGTDFTLTISSLQPEDFATYYCQQQYLTPLTFGGGTKVEIK |  |  |  | 862 | 14.4% | 1440 | 216 | 9.86% | 20.1% | 42.5% | 157 | 4.44 nM | 38% | 1.21 nM | no binding (tested: 100 nM)
C-47 (antibody, V domains shown, human IgG1) VH: QVQLVESGGGVVQPGRSLRLSCAASGFTFSSYGMHWVRQAPGKGLEWVAVISYDGSNKYYADSVKGRFTISRDNSKNTLYLQMNSLRAEDTAVYYCARGPYYSYTDTAWFDPWGQGTLVTVSS VL: not shown | 1.09 nM | no binding (tested: 100 nM) | no binding (tested: 100 nM) |  | 112% |  |  | 142% |  |  |  |  |  |  | 
C-51 (antibody, V domains shown, human IgG1) VH: QLQLQESGPGLVKPSETLSLTCTVSGGSISSSSYYWGWIRQPPGKGLEWIGSIYYSGSTYYNPSLKSRVTISVDTSKNQFSLKLSSVTAADTAVYYCARGAPHDYGGGVGWFDPWGQGTTVTVSS VL: DIQMTQSPSSVSASVGDRVTITCRASQGISSWLAWYQQKPGKAPKLLIYAASNLQSGVPSRFSGSGSGTDFTLTISSLQPEDFATYYCQQSRVFPWTFGGGTKVEIK | 2.72 nM | no binding (tested: 100 nM) | no binding (tested: 100 nM) |  | 96.6% |  |  | 129% |  |  |  |  |  |  | 
